IntAct's records for PubMed 22835334

B1: Huntingtin-interacting protein 1 (Homo sapiens), O00291 (parent)
chain: MDRMASSMKQVPNPLPKVLSRRGVGAGLEAAERESFERTQTVSINKAINTQEVAVKEKHARTCILGTHHEKGAQTFWSVVNRLPLSSNAVLCWKFCHVFHKLLRDGHPNVLKDSLRYRNELSDMSRMWGHLSEGYGQLCSIYLKLLRTKMEYHTKNPRFPGNLQMSDRQLDEAGESDVNNFFQLTVEMFDYLECELNLFQTVFNSLDMSRSVSVTAAGQCRLAPLIQVILDCSHLYDYTVKLLFKLHSCLPADTLQGHRDRFMEQFTKLKDLFYRSSNLQYFKRLIQIPQLPENPPNFLRASALSEHISPVVVIPAEASSPDSEPVLEKDDLMDMDASQQNLFDNKFDDIFGSSFSSDPFNFNSQNGVNKDEKDHLIERLYREISGLKAQLENMKTESQRVVLQLKGHVSELEADLAEQQHLRQQAADDCEFLRAELDELRRQREDTEKAQRSLSEIERKAQANEQRYSKLKEKYSELVQNHADLLRKNAEVTKQVSMARQAQVDLEREKKELEDSLERISDQGQRKTQEQLEVLESLKQELATSQRELQVLQGSLETSAQSEANWAAEFAELEKERDSLVSGAAHREEELSALRKELQDTQLKLASTEESMCQLAKDQRKMLLVGSRKAAEQVIQDALNQLEEPPLISCAGSADHLLSTVTSISSCIEQLEKSWSQYLACPEDISGLLHSITLLAHLTSDAIAHGATTCLRAPPEPADSLTEACKQYGRETLAYLASLEEEGSLENADSTAMRNCLSKIKAIGEELLPRGLDIKQEELGDLVDKEMAATSAAIETATARIEEMLSKSRAGDTGVKLEVNERILGCCTSLMQAIQVLIVASKDLQREIVESGRGTASPKEFYAKNSRWTEGLISASKAVGWGATVMVDAADLVVQGRGKFEELMVCSHEIAASTAQLVAASKVKADKDSPNLAQLQQASRGVNQATAGVVASTISGKSQIEETDNMDFSSMTLTQIKRQEMDSQVRVLELENELQKERQKLGELRKKHYELAGVAEGWEEGTEASPPTLQEVVTEKE

Variants of: B1
Conditions: with hd_human HTT

Row | Variant | effect of a mutation on the interaction
1 | T528L | increasing interaction
2 | K510L | increasing interaction
